Reference: patent US20240150462A1 (UNIVERSITY HEALTH NETWORK, published 2024)

What follows are binders tested against T1, Recombinant human Fc-tagged extracellular domain of LILRB2 (human, UniProt Q8N423 22-460) (assay: SPR, Biacore X100; LILRB2-Fc amine-coupled to CM5 chip, antibody injected at 3.7-300 nM).
T1 construct: extracellular domain; Bought from R&D Systems; also called LILRB2-Fc; not shown: Fc tag
Method: (§1) Dissociation constants (Kd) for mouse anti-human LILRB1 and LIRB2 antibodies were determined using a Biacore X100 surface plasmon resonance instrument (Cytivia). Recombinant human Fc-tagged extracellular domains of LILRB1 or LILRB2 (LILRB1-Fc or LILRB2-Fc; R&D Systems) were immobilized on a Biacore CM5 biosensor chip by amine coupling at a density of 40-50 relative units (RU). Purified mouse monoclonal antibodies were injected over the biosensor in a concentration series of 3.7, 11, 33, 100, and 300 nM in HBS-EP buffer (10 mM HEPS pH 7.4, […], 3 mM EDTA, 0.005% v/v Surfactant P20) at a flow rate of 50 μL/min. Regeneration of the chip was achieved by a 30 s injection of 10 mM glycine-HCl, pH 1.7. Affinity parameters were determined by fitting response data using the accompanying Biacore X100 analysis software.

T1 sequence (Q8N423 22-460): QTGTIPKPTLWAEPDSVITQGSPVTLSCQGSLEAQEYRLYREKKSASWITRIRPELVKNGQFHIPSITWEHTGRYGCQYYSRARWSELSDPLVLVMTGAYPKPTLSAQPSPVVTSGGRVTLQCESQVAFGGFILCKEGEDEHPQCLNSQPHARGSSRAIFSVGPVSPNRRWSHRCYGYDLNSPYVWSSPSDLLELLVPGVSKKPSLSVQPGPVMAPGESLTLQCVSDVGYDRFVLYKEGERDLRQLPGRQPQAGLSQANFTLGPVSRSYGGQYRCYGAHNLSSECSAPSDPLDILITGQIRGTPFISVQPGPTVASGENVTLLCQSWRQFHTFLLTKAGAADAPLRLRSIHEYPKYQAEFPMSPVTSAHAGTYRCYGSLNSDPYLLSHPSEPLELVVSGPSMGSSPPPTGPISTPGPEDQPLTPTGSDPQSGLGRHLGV

| -log(Kd) | Binder |
| --- | --- |
| 7.79 | 1A8 (antibody, V domains shown, Entries are printed with leader peptide and part of the mouse constant region; also called LILRB2 antibody 1A8) VH: EVQLVESGGDLVKPGESLKLSCAASGFSFSSYDMSWVRQTPDKRLEWVTTISSGGDYTYFPDILKGRFTISRDNAKHTLYLQLSSLKSEDTAMYYCARWDSNFPHWYFDVWGTGTTVTVSS VL: DIVLTQSPASLAVSLGQRATISCRASESVDKSGISFLHWYQQKPRQPPKLLIYRASNLESGIPGRFSGSGSRTDFTLSINPVEPDDVATYYCQQSNKDPFTFGGGTKLEIKR |
| 7.64 | 1C8 (antibody, V domains shown, Entries are printed with leader peptide and part of the mouse constant region; also called LILRB2 antibody 1C8) VH: EVKLVESGGGLVQPGGSLKLSCAASGFTFSDYYMYWVRQTPEKRLEWVAYISNGGGNTYYPDTVKGRFTISRDNAKNTLYLQMSRLKSEDTAMYYCARQLEDWYFDVWGTGTTVTVSS VL: DIVMTQSHKFMSTSVGDRVSITCKASQDVSTAVAWSQQKPGQSPKLLVYWASARHTGVPDRFTGSGSGADYTLTISSVQAEDLALYYCQQHFSTPLTFGAGTKLELKR |

These binders were tested against T2, Recombinant human Fc-tagged extracellular domain of LILRB1 (human, UniProt Q8NHL6 24-461) (assay: SPR, Biacore X100; LILRB1-Fc amine-coupled to CM5 chip, antibody injected at 3.7-300 nM).
T2 construct: extracellular domain; Bought from R&D Systems; also called LILRB1-Fc; not shown: Fc tag
T2 sequence (Q8NHL6 24-461): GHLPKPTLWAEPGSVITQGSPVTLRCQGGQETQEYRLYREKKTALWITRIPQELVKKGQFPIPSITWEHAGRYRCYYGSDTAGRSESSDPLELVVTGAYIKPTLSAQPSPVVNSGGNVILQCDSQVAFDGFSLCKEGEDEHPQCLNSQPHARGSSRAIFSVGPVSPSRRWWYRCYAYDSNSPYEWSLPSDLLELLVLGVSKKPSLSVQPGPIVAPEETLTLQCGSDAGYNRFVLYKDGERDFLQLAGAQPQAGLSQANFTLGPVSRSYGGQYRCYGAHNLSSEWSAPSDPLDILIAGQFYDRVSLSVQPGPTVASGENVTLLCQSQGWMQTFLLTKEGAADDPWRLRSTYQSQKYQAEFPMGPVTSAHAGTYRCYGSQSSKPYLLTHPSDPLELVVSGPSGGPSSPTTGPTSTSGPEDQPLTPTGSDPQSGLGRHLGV
Method: as §1

| -log(Kd) | Binder |
| --- | --- |
| 8.2 | 5E6 (antibody, V domains shown, Entries are printed with leader peptide and part of the mouse constant region; also called LILRB1 antibody 5E6) VH: QVQLQQSAAELVKPGASVKISCKVSGQSFTDHTIHWMKQRPEQGLEWIGYIFPRDGFTEYNERFKGKATLTADKSSSTAYMHLNSLTSEDSAVYFCAGNWDALDYWGPGTSVTVSS VL: DIVLTQSPATLSVTPGDSVSLSCRASQSISKYLHWYQQKSHESPRLLIKYVSQSISGIPSRFSGSGSGTDFTLSINSVETEDFGIYFCQQSNSWPLTFGAGTKLELKR |
| 12.6 | 4H5 (antibody, V domains shown, Entries are printed with leader peptide and part of the mouse constant region; also called LILRB1 antibody 4H5) VH: QIQLQQSGPELVKPGASVKISCKASGYTFTDYYINWVKQRPGQGLEWIGWIYPGGDNTKYNEKFKDKATLTVDTSSSTTYMQLSSLTSEDSAVYFCARFEDKYSSNYWFAYWGQGTLVTVSA VL: DILLTQSPAILSVSPGERVSFSCRASQYIGTSIHWYQQRTNGSPRLLIKYASESISGIPSRFSGSGSGTDFTLSINSVESEDVADYYCQQSNRWPFTFGSGTKLEIKR |
| 12.4 | 6A11 (antibody, V domains shown, Entries are printed with leader peptide and part of the mouse constant region; also called LILRB1 antibody 6A11) VH: QIQLQQSGPELVKPGASVKISCKASGYTFTDYYINWVKQRPGQGLEWIGWIYPGSGNTKYNEKFKGKATLTVDTSSSTAYMQLSSLTSEDSAVYFCARFEDKHSSNYWFAYWGQGTLVTVSA VL: DILLTQSPAILSVSPGERVSFSCRASQYIGTSIHWYQQRTNGSPRLLIKYASESISGIPSRFSGSGSGTDFTLSINSVESEDIADYYCQQSNSWPFTFGSGTKLEIKR |
| 8.76 | 5B3 (antibody, V domains shown, Entries are printed with leader peptide and part of the mouse constant region; also called LILRB1 antibody 5B3) VH: QVQLKESGPGLVAPSQSLSITCTVSGFSLTSYGIDWVRQPPGKGLEWLGVIWGGGNTNYNSALMSRLTISKDNSKSQVFLKMNSLQTDDTAMYYCAKANWDSYAMDYWGQGTSVTVSS VL: DIQMNQSPSSLSASLGDTITITCHASQNINFWLNWYQQKPGNIPKLLIYKASNLHTGVPSRFSGSGSGTGFTLTISSLQPEDIATYYCQQGQSYPLTFGGGTKVEIKR |
| 12.7 | 4C2 (antibody, V domains shown, Entries are printed with leader peptide and part of the mouse constant region; also called LILRB1 antibody 4C2) VH: QVQLQQPGAALVKPGASVKLSCKASGYTFTSYWMHWVKQRPGQGLEWIGMIHPNSGSTNYNEKFRSEATLTVDKSSSTVYMQLSSLTSEDSAVYYCARSGDAYYDGLDYWGQGTSVTVSS VL: DIQMNQSPSSLSASLGDTITITCHARQNINVWLSWYQQKPGNIPKLLIYKASNLHTGVSSRFSGSGSGTGFTLTISSLQPEDIATYYCQQGQSYPWTFGGGTKLEIKR |
| 7.98 | 6A6 (antibody, V domains shown, Entries are printed with leader peptide and part of the mouse constant region; also called LILRB1 antibody 6A6) VH: QVQLQQSGPELVKPGASVKISCKASGYSFTSSYIHWVKQRPGQGLEWIGWIYPGSGNTKYNERFKGKATLTADTSSSTAYMHLSSLTSEDSAVYYCARNYGTSYGWYFDVWGTGTTVTVSS VL: DIVMTQSQKFMSTTVGDRVSITCKASQNVGTAVAWYQQKPGQSPKLLIYSLSNRYTGVPDRFTGSGSGTDFTLTISNMQSEDLTDYFCQQYSSYPLTFGAGTKLELKR |
| 11.6 | 3E12 (antibody, V domains shown, Entries are printed with leader peptide and part of the mouse constant region; also called LILRB1 antibody 3E12) VH: QVQLQQSGAELMKPGASVKLSCKATGYTFTGYWIEWVKQRPGHGLEWIGEILLGSGNTNYNENFKGKATLTADTSSNTAYMQLSSLTTEDSAIYYCASTHDGYWGQGTTLTVSS VL: QFILTQSPAIMSASPGEKVTITCSASSSVSYMHWFQQKPGTSPKLWIYSTSNLASGVPARFSGSGSGTSYSLTISRMEAEDAATYYCQRRSSYPFTFGSGTKLEIKR |
| 6.58 | 6B7 (antibody, V domains shown, Entries are printed with leader peptide and part of the mouse constant region; also called LILRB1 antibody 6B7) VH: QIQLVQSGPELKKPGETVKISCKASGYTFTNYGLSWVKQAPGKGLKWMGWINTYSGVTTYADDFKGRFAFSLETSASTAYLQINNLKSEDTATYFCARRSYDYSHYYAMDYWGQGTSVTVSS VL: ETTVTQSPASLSVATGEKVTIRCITSTDIDDDINWYQQKPGEPPKFLISEGNTLRPGVPSRFSSSGYGTDFVFTIENTLSEDVADYYCLQSNNMPYTFGGGTKLEIKR |
| 7.76 | 4A11 (antibody, V domains shown, Entries are printed with leader peptide and part of the mouse constant region; also called LILRB1 antibody 4A11) VH: QVQLKQSGAELVRPGTSVKLSCKASGYTFTDYYINWVKQRPGQGLEWIARIYPGSGNTFYNEKFQDKATLTAEKSSSTAYMQLSSLTSEDSAVYFCANTPSYGSSHWYFDVWGTGTTVTVSS VL: DIVMTQSHKFMSTSVGDRVSITCKASQDVNTAVAWYQQKPGQSPKLLIYWASTRHTGVPDRFTGSGSGTDFTLTISNVQSEDLADYFCQQYSTYPRTFGGGTKLEIKR |
| 8.13 | 1B10 (antibody, V domains shown, The entries called 'variable region' are printed with the leader peptide and part of the mouse constant region; also called LILRB1 antibody 1B10) VH: QVQLQQPGAELVKPGASVKLSCKASGYTFTNYWVQWVKQRPGQGLEWIGMIHPNSGSTNSNEKFKNKATLTVDRSSSTAYMQLSRLTSEDSAVYYCARGDDGYLYYFDYWGQGTTLTVSS VL: QIVLTQSPALMSASPGEKVTMTCSASSSVSHMYWYQQKPRSSPKPWIYLTSNLASGVPARFSGSGSGTSYSLTISNMEAEDAATYYCQQWSSYAFTFGSGTKLEIKR |
| 7.89 | 4D5 (antibody, V domains shown, Entries are printed with leader peptide and part of the mouse constant region; also called LILRB1 antibody 4D5) VH: QVQLQQPGAELVRPGSSVKLSCKASGYTFTSYWMDWVKQRPGQGLEWIGNIYPSDSATHYNQKFKDKATLTVDKSSSTAYMHLSSLTSEDSAVYYCARGLLQYFDVWGTGTSVTVSS VL: DIQMTQSPASLSVSVGETVTITCRASENIYSNLAWYQQKQGKSPQLLVYGATNLADGVPSRFSGSGSGTQYSLKINSLQSEDFGSYYCQHFWGIPWTFGGGTKLEIKR |
| 7.89 | 4A10 (antibody, V domains shown, Entries are printed with leader peptide and part of the mouse constant region; also called LILRB1 antibody 4A10) VH: QVQLQQPGAELVKPGASVKLSCKASGYTFTNYWMYWVKQRPGQGLEWIGMIHPNSDSTNYNEKFKNKATLTVDRSSSTAYMQLSSLTSEDSAVYCCARGEDNYDYVMDYWGQGTSVTVSS VL: DIVMTQAAPSVPVTPGESVSISCRSSKSLLHSYGNTHLYWFLQRPGQSPQLLIYRMSNLASGVPDRFSGSGSGTAFTLRISRVEAEDVGVYYCMQHLEYPLTFGAGTKLELKR |
| < 3 | 5E11 (antibody, V domains shown, Entries are printed with leader peptide and part of the mouse constant region; also called LILRB1 antibody 5E11) VH: QVQLKESGPGLVAPSQSLSITCTVSGFSLSSYGVNWVRQPPGKGLEWLGVIWGDGSTNYHSALISRLSISKDNSKSQVFLKLNSLQTDDTATYYCAKPNWDYYAMEYWGQGTSVTVSS VL: DIQMTQTTSSLSASLGDRVTITCRASQDISNFLNWYQQKPDGPVKLLIYYTSRLHSGVPSRFSGSGSGTDYSLTISNLEQEDIATYFCQQGNTLPWTFGGGTKLEIKR |
| 8.26 | 5H12 (antibody, V domains shown, Entries are printed with leader peptide and part of the mouse constant region; also called LILRB1 antibody 5H12) VH: QVQLKESGPGLVAPSQSLSITCTVSGFSLSSYGVNWVRQPPGKGLEWLGVIWGDGSTNYHSALISRLSISKDNSKSQVFLKLNSLQTDDTATYYCAKPNWDYYAMEYWGQGTSVTVSS VL: GIVMTQSQKFMSSTVGDRVSITCKASQNVGAAVIWYQQKPGQSPKLLIYSASNRYTGVLDRFTGSGSGTDFTLTISNMQSEDLADYFCQQYSSYPWTFGGGTKLEIKR |
